Experimental data as given in paper PMC6356861 (ACS Omega, 2019).

Biological target: the molecule itself
Assay: SAXS

B1: simian virus 40 (SV40) major capsid protein VP1, as soluble VP1 pentamers (natural protein)
chain: APTKRKGSCPGAAPKKPKEPVQVPKLVIKGGIEVLGVKTGVDSFTEVECFLNPQMGNPDEHQKGLSKSLAAEKQFTDDSPDKEQLPCYSVARIPLPNINEDLTCGNILMWEAVTVKTEVIGVTAMLNLHSGTQKTHENGAGKPIQGSNFHFFAVGGEPLELQGVLANYRTKYPAQTVTPKNATVDSQQMNTDHKAVLDKDNAYPVECWVPDPSKNENTRYFGTYTGGENVPPVLHITNTATTVLLDEQGVGPLCKADSLYVSAVDICGLFTNTSGTQQWKGLPRYFKITLRKRSVKNPYPISFLLSDLINRRTQRVDGQPMIGMSSQVEEVRVYEDTEELPGDPDMIRYIDEFGQTTTRMQ
B1: binds.
